In the domain aggregation screens of Martell et al. (2025):

Test: soluble fraction after stress (log2 fold change); higher = more stays soluble; pooled small domains, quantitative proteomics
Conditions: stress: 50 degC
Summary of the method: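 The stress applied to every library was 50°C. These custom libraries of small protein domains were pooled and measured at high throughput with quantitative proteomics as the read-out. Aggregation propensity is expressed as the base-two logarithm of the fold change in how much of each protein remains soluble. The higher the value, the more of that protein stays in solution.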

| Sequence | soluble fraction (log2) |
| --- | --- |
| HMYSLSELERIKNFLTGYMSDYSIMMLDANEITNQVDISLKDYSDDNIESIKAAVLSHGGKTDYLNFIDDS | -0.589 |
| HMSLQNTMANFAGGVLVLFLKPFKAGDYIVTKDGEGTVASIGLVYTTLLTIENKRIVIPNSSISNSPITN | 0.0055 |
| HMIMPSDATEAKLLGVLGNEPLHVDEIRNQAELPIEKVSAALALMELKGMVRQVGGMNYVAVR | 0.117 |
| HMAEIIVHEINRHLGESDEPVEFPEERREEAVAELLKNFHNDDAFRKMDDGKYEVALDGEAVREAARSLLA | 0.207 |
| HMHTADDFKQLAKQTSNGQLRTRYLALYLFKNGETRTQIATYLGVARGSVNTWVSNYLAHGLEGLQSKP | -2.65 |
| HMRGETSYANDIIKRLKQANLIVVEGTLYPLLNRLKKDGLLHYEWRESQQGPPRKYYGLTEEGEA | -0.132 |
| HMETNFTGTRIATARKAKNMSQAQLAQQLFISPQAVGKWERGESIPDIVTVVKLADVLGVDLNYFSE | -0.12 |
| HMNPSAFSEYSFELLQSALLKKKIDENLSNQTIARDAGVSEAFVQKVLTNNVKRPSVKNRVRMISYLGLD | -1.22 |
| HMREVPHGEYEVKIEKLELVESKAGDPMVTVWFKVLAGDYKGSMIFMNQVITKGFQIHIMNEFLR | -0.256 |
| HMPTSLPGIDIDEKNIVSSTGALSFKKVPKKLAIIGGGYIGLEMGSVWSRLGSSVTVIEYLNFITPG | -0.00687 |
| HMDKSLDFASIKSVEIATGRKFGWHALKKWSKSNSSEIKTIPDPNFGEVKTYHKDAWLAVYNINLSPILD | -0.404 |
| HMSASIAEGTVIMLENTTNIRSGMSEDSSKVGTAYAGEKVTVVMSYAEGWTKVKWNGETGYIKTALLQL | -0.212 |
| HMLLTPLEETRLVIEEIVIPQKLTIDLLPRSSAIRKLQHELITHYQLRGTSVGNEPNRRLRIYP | -0.244 |
| HMKKAITMGDIITVKELSEKIGIQVAEIIKKLMGLGILATINKELDYDTANVIASEFHIELERK | -0.00712 |
| HMEPEWVINTDGSNLNEILAIDEVDSRKTFSNDLQEVYRTFGIEAARQILVQEIDAVIESSGA | 0.199 |
| HMKKSRLHSVLEEIPGIGEKRRKILIKHFGTVEAIKKSSLEELARIKGMNRRAAQNVLEYLK | -0.0583 |
| HMDVNMLVTGMLHKGEKSFVRVSFLRGKDWAEGIVPDAKIEKSQGFMEEEVARLEAYLLEQKSMIMEQA | -1.32 |
| HMNSKIIVESIIKSKNGIAKVADLVEGGVSRQSIKKMYADGYIKRISRGYYTLTSEPVSSDEQVISS | -0.333 |
| HMSVPQENKDLLGRSIEIFYAGKTVEAKVTDTGALAPLGRALDLSPATWRAFGASSISDWGVRGVFYRFVA | 0.0464 |

| Sequence | soluble fraction (log2) |
| --- | --- |
| HMTAKQDLDSIYRHLVATRKSIAENPKMVSSIDDPQALIKMLDYAIQYFYTDKRDEALAVLEKNEEQLNFR | -0.117 |
| HMKVTADVVVADRLKAWIISNNLKPGDRLPTEQKLSEELGVARHTLREGIKRLSQLGIIGSRTGSGMYVKN | 0.0235 |
| HMIDTTKILPGQEFKNMQELSVALTGQKMPAGKGYVLQQEKFKLYFSWKKITGTHKLIIDEIYEEPKT | -3.44 |
| HMNGVFIMHTPDGKVLRTEEGEEAVITLFNWSGQLLWSKTSLGQLPLPEGTQGVLQVQYKSGDQHTIKT | -0.267 |
| HMQLPDLDEIRQMRKRLDLSQRELAALAGVSQSLIAKIEKGSIDPSYDNVRKIFNAFENILKKRALE | -0.255 |
| HMGTPLYLLLAAEVRDRIATEQLAPHTAVPSERELAELHGVSRMTARQALALLESEGLVYRNPPRGTFVAE | -0.85 |
| HMESGSSKINQDILETFTRGKKSLSISDISRLSGHHRHTVARYLDNLVSSGKLEMRQHGQKKKYYLSDIQP | 0.0308 |
| HMFKLPRTIGTFEDSDVVIGAGKFGPYIMHNKKFVSLPKSEDPLTIGLERAIELISAKREQEKQRH | 0.284 |
| HMRININNASARQIADALPGVGLKTARDIKDFQTTLSGERYTRLDQLHSIKRVDWDEIFKADLVRV | -0.0293 |
| HMDTFYKNLSKKIKTIREKLSFSQEALAKELGISRVAISQIENGDRKISAEEIAKLSRVFNVPTDILLN | 0.187 |
| HMLPIKLDLEIGENVRVVSGPLENFVGSVVSFDTDQQKVKLVVEMFGRKTPVELDFIEVQKLR | -0.435 |
| HMFDMLGDQIKKYRKEKKMSQEELAIPLNVVRQTVSKWENNLSVPDAELLIRLAEVLEISVAELLGT | -0.108 |
| HMPFSLHGVNEGSRNDNAARIAGYLISKNLNLDFVRIFLHNWNRDNKPPLPQQEIDSVVDNVKKTHDRKN | -0.828 |
| HMAPEPFILSVDADGKYYIDDLEKTKQEILIYATALYQEKPTTDFLVRGDKSAAYNDVLQAMVVLKE | -0.0406 |
| HMSTESAHLGERMLNQALRAMHIEPDQITEAHWQKLIRDYGLKKKSEILTDIGLGKRQNVMVAHQLLAMG | -0.106 |
| HMGVISRVITFWQNGFTVDDGPLRAFDDPANMAFMESIGRGEAPAELAPKTRTQRVNINLVQRHEPYSAPK | -0.0726 |
| HMSDKPIFIDTAGIAALSAIGFSKYQATIIFNYIKKGGAIYTVKDLAKIYSIDQKTIDLTQSKIIFS | -0.0111 |
| HMKNLTEVEYSEFLESIAQDRVSKVQVDGLIIRGEMNDGQRFETVQPQVTDKALIDDMVNHRVDFSGARP | 0.0951 |
